From PMC9168836, “Clamping of DNA shuts the condensin neck gate” (Proceedings of the National Academy of Sciences of the …, 2021)

Assays:
[1] = biological target: Ycg1 (HAWK);Brn1 (kleisin) (Saccharomyces cerevisiae;Saccharomyces …, UniProt Q06680;P38170 1-1035;1-754, |); assay: cryo-EM structure; Ycg1-Brn1 part of the condensin pentamer; ADP.BeF3, Mg2+ in sample; 3.2 A; 30 mM Tris/HCl pH 7.5, 60 mM NaCl, 1 mM TCEP, 2 mM MgCl2, 5 mM ADP, 1 mM BeSO4, 10 mM NaF; 30 min at room temperature; 1-2 uM 80-bp DNA or 100 nM circular DNA; settings: protein: recombinant;recombinant; tags: see P1;see P1; copies: 1;1; blunt
[2] = biological target: Smc2;Smc4;Brn1 (kleisin);Ycs4 (HAWK);Ycg1 (HAWK) (Saccharomyces cerevisiae;Saccharomyces …, UniProt P38989;Q12267;P38170;Q06156;Q06680 1-1170;1-1418;1-754;1-1176;1-1035, ||||); assay: cryo-EM structure; condensin pentamer; ADP.BeF3, Mg2+; clamped head module map EMD-13785, Ycg1 not on head module; 30 mM Tris/HCl pH 7.5, 60 mM NaCl, 1 mM TCEP, 2 mM MgCl2, 5 mM ADP, 1 mM BeSO4, 10 mM NaF; 30 min at room temperature; 1-2 uM 80-bp DNA or 100 nM circular DNA; settings: protein: recombinant;recombinant;recombinant;recombinant;recombinant; copies: 1;1;1;1;1; blunt
[3] = biological target: Smc2;Smc4;Brn1 (kleisin);Ycs4 (HAWK) (Saccharomyces cerevisiae;Saccharomyces …, UniProt P38989;Q12267;P38170;Q06156 1-1170;1-1418;1-754;1-1176, |||); assay: cryo-EM structure; condensin tetramer; ADP.BeF3, Mg2+; clamped head module Form I, 2.95 A; 30 mM Tris/HCl pH 7.5, 60 mM NaCl, 1 mM TCEP, 2 mM MgCl2, 5 mM ADP, 1 mM BeSO4, 10 mM NaF; 30 min at room temperature; 1-2 uM 80-bp DNA or 100 nM circular DNA; settings: protein: recombinant;recombinant;recombinant;recombinant; copies: 1;1;1;1; blunt

Measured: binding result

Smc2;Smc4;Brn1 (kleisin);Ycs4 (HAWK), sequence (P38989 whole entry, chain 1 of 4): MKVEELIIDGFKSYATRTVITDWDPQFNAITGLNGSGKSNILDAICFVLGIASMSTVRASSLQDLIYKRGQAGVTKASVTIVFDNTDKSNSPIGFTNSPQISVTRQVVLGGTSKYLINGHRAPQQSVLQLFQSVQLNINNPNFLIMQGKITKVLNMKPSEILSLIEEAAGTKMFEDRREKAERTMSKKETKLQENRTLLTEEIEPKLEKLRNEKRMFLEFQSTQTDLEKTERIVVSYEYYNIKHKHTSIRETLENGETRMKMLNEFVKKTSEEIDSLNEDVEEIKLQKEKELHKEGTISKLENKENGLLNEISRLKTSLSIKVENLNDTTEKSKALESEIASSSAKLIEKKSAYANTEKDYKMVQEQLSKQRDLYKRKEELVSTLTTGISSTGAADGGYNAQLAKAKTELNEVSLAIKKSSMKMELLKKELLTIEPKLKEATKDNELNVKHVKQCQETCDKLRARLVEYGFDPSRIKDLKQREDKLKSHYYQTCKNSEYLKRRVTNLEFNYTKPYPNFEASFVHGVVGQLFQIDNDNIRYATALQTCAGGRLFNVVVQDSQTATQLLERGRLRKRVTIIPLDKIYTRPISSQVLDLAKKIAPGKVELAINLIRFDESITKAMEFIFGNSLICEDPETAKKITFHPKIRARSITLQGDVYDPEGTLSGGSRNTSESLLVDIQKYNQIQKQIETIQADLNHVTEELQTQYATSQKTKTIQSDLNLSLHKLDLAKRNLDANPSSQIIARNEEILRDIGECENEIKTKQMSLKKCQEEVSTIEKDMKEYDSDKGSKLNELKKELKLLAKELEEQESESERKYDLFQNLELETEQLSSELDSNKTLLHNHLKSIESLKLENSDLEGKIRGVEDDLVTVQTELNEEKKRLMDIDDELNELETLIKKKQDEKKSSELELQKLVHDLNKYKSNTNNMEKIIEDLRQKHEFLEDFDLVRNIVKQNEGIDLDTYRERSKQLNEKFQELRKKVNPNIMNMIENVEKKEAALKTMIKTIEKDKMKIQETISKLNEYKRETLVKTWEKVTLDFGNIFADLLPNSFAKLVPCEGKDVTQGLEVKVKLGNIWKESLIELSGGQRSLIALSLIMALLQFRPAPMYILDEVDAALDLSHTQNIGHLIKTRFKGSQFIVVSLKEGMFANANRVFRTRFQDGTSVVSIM
Smc2;Smc4;Brn1 (kleisin);Ycs4 (HAWK), sequence (Q12267 whole entry, chain 2 of 4): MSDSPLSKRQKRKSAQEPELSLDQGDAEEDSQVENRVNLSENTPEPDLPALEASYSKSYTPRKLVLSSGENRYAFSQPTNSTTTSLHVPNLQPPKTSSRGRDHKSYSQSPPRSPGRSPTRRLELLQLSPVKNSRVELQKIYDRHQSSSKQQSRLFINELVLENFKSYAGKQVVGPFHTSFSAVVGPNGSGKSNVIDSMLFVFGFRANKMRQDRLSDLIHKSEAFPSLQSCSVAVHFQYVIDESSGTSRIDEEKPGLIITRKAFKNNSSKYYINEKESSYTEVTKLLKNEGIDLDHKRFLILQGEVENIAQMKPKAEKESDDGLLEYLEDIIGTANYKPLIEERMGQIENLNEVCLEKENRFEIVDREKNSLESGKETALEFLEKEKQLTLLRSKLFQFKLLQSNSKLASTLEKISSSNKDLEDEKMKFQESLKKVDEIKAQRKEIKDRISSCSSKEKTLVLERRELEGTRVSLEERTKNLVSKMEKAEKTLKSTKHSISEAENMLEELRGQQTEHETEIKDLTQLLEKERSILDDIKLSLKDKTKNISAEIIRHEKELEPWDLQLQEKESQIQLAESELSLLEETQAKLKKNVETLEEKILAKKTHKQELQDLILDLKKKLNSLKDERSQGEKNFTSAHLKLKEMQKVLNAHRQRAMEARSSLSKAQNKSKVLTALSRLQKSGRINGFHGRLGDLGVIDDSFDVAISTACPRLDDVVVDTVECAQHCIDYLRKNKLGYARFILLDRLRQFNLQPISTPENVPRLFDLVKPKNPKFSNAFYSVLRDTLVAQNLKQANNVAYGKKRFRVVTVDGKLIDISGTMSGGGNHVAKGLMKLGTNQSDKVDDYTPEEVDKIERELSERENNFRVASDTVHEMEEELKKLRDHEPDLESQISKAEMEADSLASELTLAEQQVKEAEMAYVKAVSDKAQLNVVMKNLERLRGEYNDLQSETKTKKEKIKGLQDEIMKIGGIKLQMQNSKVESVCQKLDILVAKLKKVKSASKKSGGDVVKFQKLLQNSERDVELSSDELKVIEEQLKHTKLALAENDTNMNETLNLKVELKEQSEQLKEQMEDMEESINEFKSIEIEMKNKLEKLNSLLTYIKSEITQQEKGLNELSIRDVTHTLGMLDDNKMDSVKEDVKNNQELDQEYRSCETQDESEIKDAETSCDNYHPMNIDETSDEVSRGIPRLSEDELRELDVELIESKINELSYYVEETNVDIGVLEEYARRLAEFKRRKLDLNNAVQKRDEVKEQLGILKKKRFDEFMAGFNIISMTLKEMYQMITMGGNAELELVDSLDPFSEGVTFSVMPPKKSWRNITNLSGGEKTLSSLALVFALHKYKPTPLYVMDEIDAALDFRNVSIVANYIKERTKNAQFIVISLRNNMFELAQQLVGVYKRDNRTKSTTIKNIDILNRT
Smc2;Smc4;Brn1 (kleisin);Ycs4 (HAWK), sequence (P38170 whole entry, chain 3 of 4): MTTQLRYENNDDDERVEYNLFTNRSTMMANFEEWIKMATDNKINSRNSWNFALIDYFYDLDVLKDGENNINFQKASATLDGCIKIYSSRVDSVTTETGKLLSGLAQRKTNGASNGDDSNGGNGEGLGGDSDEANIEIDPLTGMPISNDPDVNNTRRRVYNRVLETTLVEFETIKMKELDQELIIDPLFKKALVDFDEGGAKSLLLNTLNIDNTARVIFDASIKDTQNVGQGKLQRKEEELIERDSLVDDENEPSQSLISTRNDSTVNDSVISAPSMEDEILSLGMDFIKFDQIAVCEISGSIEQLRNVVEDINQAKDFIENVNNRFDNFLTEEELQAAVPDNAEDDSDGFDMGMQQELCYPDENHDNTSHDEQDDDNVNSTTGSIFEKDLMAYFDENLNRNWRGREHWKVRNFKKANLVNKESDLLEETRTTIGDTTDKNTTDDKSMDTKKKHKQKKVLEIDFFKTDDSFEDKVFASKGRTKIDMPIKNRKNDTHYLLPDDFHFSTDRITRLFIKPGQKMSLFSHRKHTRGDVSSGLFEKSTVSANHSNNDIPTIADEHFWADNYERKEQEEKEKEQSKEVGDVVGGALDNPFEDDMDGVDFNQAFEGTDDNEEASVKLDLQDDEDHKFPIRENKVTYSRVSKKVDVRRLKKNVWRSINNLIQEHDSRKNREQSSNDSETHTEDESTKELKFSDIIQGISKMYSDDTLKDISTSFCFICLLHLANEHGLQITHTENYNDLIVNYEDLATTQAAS
Smc2;Smc4;Brn1 (kleisin);Ycs4 (HAWK), sequence (Q06156 whole entry, chain 4 of 4): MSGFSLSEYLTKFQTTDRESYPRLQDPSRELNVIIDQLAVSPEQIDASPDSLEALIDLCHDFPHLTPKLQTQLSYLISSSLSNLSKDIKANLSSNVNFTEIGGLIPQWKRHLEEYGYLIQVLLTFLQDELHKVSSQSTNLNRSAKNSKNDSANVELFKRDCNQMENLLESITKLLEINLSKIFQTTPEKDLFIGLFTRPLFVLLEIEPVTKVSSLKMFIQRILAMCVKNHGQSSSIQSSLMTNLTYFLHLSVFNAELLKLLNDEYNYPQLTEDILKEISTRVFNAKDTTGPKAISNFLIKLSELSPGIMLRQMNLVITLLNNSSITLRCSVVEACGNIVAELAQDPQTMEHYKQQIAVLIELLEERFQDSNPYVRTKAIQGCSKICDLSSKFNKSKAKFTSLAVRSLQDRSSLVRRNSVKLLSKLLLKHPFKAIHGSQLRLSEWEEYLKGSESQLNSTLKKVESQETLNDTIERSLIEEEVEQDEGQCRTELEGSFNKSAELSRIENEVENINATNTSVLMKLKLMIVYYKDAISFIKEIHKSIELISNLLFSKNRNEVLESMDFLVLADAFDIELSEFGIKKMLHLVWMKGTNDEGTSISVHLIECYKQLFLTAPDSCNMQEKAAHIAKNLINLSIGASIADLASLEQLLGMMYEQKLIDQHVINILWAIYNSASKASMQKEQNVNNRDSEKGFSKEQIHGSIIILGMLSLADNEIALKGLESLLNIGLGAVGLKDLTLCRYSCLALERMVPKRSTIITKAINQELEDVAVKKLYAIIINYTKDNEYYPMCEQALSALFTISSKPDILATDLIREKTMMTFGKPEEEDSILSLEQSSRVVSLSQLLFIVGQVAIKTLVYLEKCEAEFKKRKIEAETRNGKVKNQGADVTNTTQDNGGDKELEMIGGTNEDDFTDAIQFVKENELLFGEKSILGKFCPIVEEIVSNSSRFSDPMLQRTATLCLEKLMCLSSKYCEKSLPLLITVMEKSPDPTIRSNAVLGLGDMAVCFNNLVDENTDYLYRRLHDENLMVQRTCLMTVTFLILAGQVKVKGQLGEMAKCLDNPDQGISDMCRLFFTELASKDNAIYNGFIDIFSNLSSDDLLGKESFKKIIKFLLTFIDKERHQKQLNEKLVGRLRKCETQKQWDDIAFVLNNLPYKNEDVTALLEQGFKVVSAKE

B1: 80-bp dsDNA (dsDNA)
DNA 1: GAATTCGGTGCGCATAATGTATAATAAGATAAATAAGCTTAAGTTCTTCCGATGCATAATAACATAATACGTGACTTTAC
DNA 2: GTAAAGTCACGTATTATGTTATTATGCATCGGAAGAACTTAAGCTTATTTATCTTATTATACATTATGCGCACCGAATTC
binds: [1] | [2] | [3]
